T1: FcγRIIb, extracellular domain with C-terminal His tag (human, UniProt P31994 43-217)
T1 construct: extracellular domain; soluble receptor used as Biacore analyte; also called 2b; FcgRIIb
T1 sequence (looked up): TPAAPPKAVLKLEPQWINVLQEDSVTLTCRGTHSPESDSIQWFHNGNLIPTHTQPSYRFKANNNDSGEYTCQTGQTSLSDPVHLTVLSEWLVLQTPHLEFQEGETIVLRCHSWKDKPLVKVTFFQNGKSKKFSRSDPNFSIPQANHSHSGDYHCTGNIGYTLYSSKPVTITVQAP

T2: FcγRIIa R (FcγRIIa, allotype R, Arg at position 131), extracellular domain with C-terminal His tag (human, UniProt P12318 34-217)
T2 construct: extracellular domain; soluble receptor used as Biacore analyte; also called 2aR; FcgRIIa R
T2 sequence (looked up): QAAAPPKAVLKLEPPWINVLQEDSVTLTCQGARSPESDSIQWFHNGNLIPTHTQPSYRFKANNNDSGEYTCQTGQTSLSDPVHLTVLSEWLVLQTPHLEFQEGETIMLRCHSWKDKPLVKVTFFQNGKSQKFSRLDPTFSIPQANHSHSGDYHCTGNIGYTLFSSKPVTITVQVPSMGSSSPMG


Key:
[1] = target: T1, FcγRIIb, extracellular domain with …; experiment: Biacore SPR; binding relative to GpH7-A5/GpH7-B3/GpL16-k0 (=100)
Procedure: (§1) The heterodimerized antibodies He Abs in which one of the H chains was introduced with an alteration were assayed for their binding activities to each activating FcγR and inhibitory FcγR according to the method described in Example 4. […] The activating FcγRs in FIGS. 26, 27, 28, and 29 are FcγRIa, FcγRIIa (R), FcγRIIa (H), and FcγRIIIa, respectively.
(§2) Analysis of interaction between objective antibody and the FcγR was carried out using Biacore T100 (GE Healthcare). HBS-EP+ (GE Healthcare) was used as the running buffer, and the measurement temperature was set to 25° C. Chips produced by immobilizing the antigen peptide by the amine coupling method to a Series S Sencor Chip CM5 (GE Healthcare), or alternatively, chips produced by allowing preliminarily biotinylated antigen peptides to interact with and immobilize onto a Series S Sensor Chip SA (certified) (GE Healthcare) were used. Antibodies of interest were captured onto an antigen peptide-immobilized chip, and allowed to interact to each FcγR diluted with running buffer. To regenerate and repeatedly use the chip, the antibodies captured on the chip were washed off by reacting 10 mM glycine-HCl, pH 1.5.

[2] = target: T2, FcγRIIa R (FcγRIIa, allotype R, Arg at …); experiment: as above
Procedure: as §1, §2

[3] = target: T2, FcγRIIa R (FcγRIIa, allotype R, Arg at …); experiment: Biacore SPR; He/Con_2aR divided by He/Con_2b (FcγRIIb)
Procedure: as §1, §2

Binder	He/Con_2b (IIb binding) [1]	He/Con_2aR (IIaR binding) [2]	IIaR/IIb (He_2aR/2b) [3]
heterodimerized antibody GpH7-A5/GpH7-B3 variant S267_08L/GpL16-k0 (antibody, human IgG1, kappa, He Ab: anti-glypican-3 IgG1, alteration in one H chain only; also called He Ab) heavy 1: not shown heavy 2: not shown light: DIVMTQSPLSLPVTPGEPASISCQASESLVHSNRNTYLHWYLQKPGQSPQLLIYKVSNRFSGVPDRFSGSGSGTDFTLKISRVEAEDVGVYYCSQNTHVPPTFGQGTKVEIERTVAAPSVFIFPPSDEQLKSGTASVVCLLNNFYPREAKVQWKVDNALQSGNSQESVTEQDSKDSTYSLSSTLTLSKADYEKHKVYACEVTHQGLSSPVTKSFNRGEC	109 % of control	72.1 % of control	0.66
heterodimerized antibody GpH7-A5/GpH7-B3 variant D270_05P/GpL16-k0 (antibody, human IgG1, kappa, He Ab: anti-glypican-3 IgG1, alteration in one H chain only; also called He Ab) heavy 1: not shown heavy 2: not shown light: DIVMTQSPLSLPVTPGEPASISCQASESLVHSNRNTYLHWYLQKPGQSPQLLIYKVSNRFSGVPDRFSGSGSGTDFTLKISRVEAEDVGVYYCSQNTHVPPTFGQGTKVEIERTVAAPSVFIFPPSDEQLKSGTASVVCLLNNFYPREAKVQWKVDNALQSGNSQESVTEQDSKDSTYSLSSTLTLSKADYEKHKVYACEVTHQGLSSPVTKSFNRGEC	13.9 % of control	7.5 % of control	0.54
heterodimerized antibody GpH7-A5/GpH7-B3 variant G237_09D/GpL16-k0 (antibody, human IgG1, kappa, He Ab: anti-glypican-3 IgG1, alteration in one H chain only; also called He Ab) heavy 1: not shown heavy 2: not shown light: DIVMTQSPLSLPVTPGEPASISCQASESLVHSNRNTYLHWYLQKPGQSPQLLIYKVSNRFSGVPDRFSGSGSGTDFTLKISRVEAEDVGVYYCSQNTHVPPTFGQGTKVEIERTVAAPSVFIFPPSDEQLKSGTASVVCLLNNFYPREAKVQWKVDNALQSGNSQESVTEQDSKDSTYSLSSTLTLSKADYEKHKVYACEVTHQGLSSPVTKSFNRGEC	223 % of control	156 % of control	0.7
heterodimerized antibody GpH7-A5/GpH7-B3 variant A327_10E/GpL16-k0 (antibody, human IgG1, kappa, He Ab: anti-glypican-3 IgG1, alteration in one H chain only; also called He Ab) heavy 1: not shown heavy 2: not shown light: DIVMTQSPLSLPVTPGEPASISCQASESLVHSNRNTYLHWYLQKPGQSPQLLIYKVSNRFSGVPDRFSGSGSGTDFTLKISRVEAEDVGVYYCSQNTHVPPTFGQGTKVEIERTVAAPSVFIFPPSDEQLKSGTASVVCLLNNFYPREAKVQWKVDNALQSGNSQESVTEQDSKDSTYSLSSTLTLSKADYEKHKVYACEVTHQGLSSPVTKSFNRGEC	140 % of control	110 % of control	0.78
heterodimerized antibody GpH7-A5/GpH7-B3 variant A327_07I/GpL16-k0 (antibody, human IgG1, kappa, He Ab: anti-glypican-3 IgG1, alteration in one H chain only; also called He Ab) heavy 1: not shown heavy 2: not shown light: DIVMTQSPLSLPVTPGEPASISCQASESLVHSNRNTYLHWYLQKPGQSPQLLIYKVSNRFSGVPDRFSGSGSGTDFTLKISRVEAEDVGVYYCSQNTHVPPTFGQGTKVEIERTVAAPSVFIFPPSDEQLKSGTASVVCLLNNFYPREAKVQWKVDNALQSGNSQESVTEQDSKDSTYSLSSTLTLSKADYEKHKVYACEVTHQGLSSPVTKSFNRGEC	127 % of control	98 % of control	0.77
heterodimerized antibody GpH7-A5/GpH7-B3 variant G236_09D/GpL16-k0 (antibody, human IgG1, kappa, He Ab: anti-glypican-3 IgG1, alteration in one H chain only; also called He Ab) heavy 1: not shown heavy 2: not shown light: DIVMTQSPLSLPVTPGEPASISCQASESLVHSNRNTYLHWYLQKPGQSPQLLIYKVSNRFSGVPDRFSGSGSGTDFTLKISRVEAEDVGVYYCSQNTHVPPTFGQGTKVEIERTVAAPSVFIFPPSDEQLKSGTASVVCLLNNFYPREAKVQWKVDNALQSGNSQESVTEQDSKDSTYSLSSTLTLSKADYEKHKVYACEVTHQGLSSPVTKSFNRGEC	167 % of control	106 % of control	0.64
heterodimerized antibody GpH7-A5/GpH7-B3 variant H268_09D/GpL16-k0 (antibody, human IgG1, kappa, He Ab: anti-glypican-3 IgG1, alteration in one H chain only; also called He Ab) heavy 1: not shown heavy 2: not shown light: DIVMTQSPLSLPVTPGEPASISCQASESLVHSNRNTYLHWYLQKPGQSPQLLIYKVSNRFSGVPDRFSGSGSGTDFTLKISRVEAEDVGVYYCSQNTHVPPTFGQGTKVEIERTVAAPSVFIFPPSDEQLKSGTASVVCLLNNFYPREAKVQWKVDNALQSGNSQESVTEQDSKDSTYSLSSTLTLSKADYEKHKVYACEVTHQGLSSPVTKSFNRGEC	239 % of control	149 % of control	0.62
heterodimerized antibody GpH7-A5/GpH7-B3 variant G237_20W/GpL16-k0 (antibody, human IgG1, kappa, He Ab: anti-glypican-3 IgG1, alteration in one H chain only; also called He Ab) heavy 1: not shown heavy 2: not shown light: DIVMTQSPLSLPVTPGEPASISCQASESLVHSNRNTYLHWYLQKPGQSPQLLIYKVSNRFSGVPDRFSGSGSGTDFTLKISRVEAEDVGVYYCSQNTHVPPTFGQGTKVEIERTVAAPSVFIFPPSDEQLKSGTASVVCLLNNFYPREAKVQWKVDNALQSGNSQESVTEQDSKDSTYSLSSTLTLSKADYEKHKVYACEVTHQGLSSPVTKSFNRGEC	193 % of control	138 % of control	0.71
heterodimerized antibody GpH7-A5/GpH7-B3 variant H268_02A/GpL16-k0 (antibody, human IgG1, kappa, He Ab: anti-glypican-3 IgG1, alteration in one H chain only; also called He Ab) heavy 1: not shown heavy 2: not shown light: DIVMTQSPLSLPVTPGEPASISCQASESLVHSNRNTYLHWYLQKPGQSPQLLIYKVSNRFSGVPDRFSGSGSGTDFTLKISRVEAEDVGVYYCSQNTHVPPTFGQGTKVEIERTVAAPSVFIFPPSDEQLKSGTASVVCLLNNFYPREAKVQWKVDNALQSGNSQESVTEQDSKDSTYSLSSTLTLSKADYEKHKVYACEVTHQGLSSPVTKSFNRGEC	167 % of control	133 % of control	0.8
heterodimerized antibody GpH7-A5/GpH7-B3 variant L328_11K/GpL16-k0 (antibody, human IgG1, kappa, He Ab: anti-glypican-3 IgG1, alteration in one H chain only; also called He Ab) heavy 1: not shown heavy 2: not shown light: DIVMTQSPLSLPVTPGEPASISCQASESLVHSNRNTYLHWYLQKPGQSPQLLIYKVSNRFSGVPDRFSGSGSGTDFTLKISRVEAEDVGVYYCSQNTHVPPTFGQGTKVEIERTVAAPSVFIFPPSDEQLKSGTASVVCLLNNFYPREAKVQWKVDNALQSGNSQESVTEQDSKDSTYSLSSTLTLSKADYEKHKVYACEVTHQGLSSPVTKSFNRGEC	–	2.5 % of control	0.33
heterodimerized antibody GpH7-A5/GpH7-B3 variant L328_12R/GpL16-k0 (antibody, human IgG1, kappa, He Ab: anti-glypican-3 IgG1, alteration in one H chain only; also called He Ab) heavy 1: not shown heavy 2: not shown light: DIVMTQSPLSLPVTPGEPASISCQASESLVHSNRNTYLHWYLQKPGQSPQLLIYKVSNRFSGVPDRFSGSGSGTDFTLKISRVEAEDVGVYYCSQNTHVPPTFGQGTKVEIERTVAAPSVFIFPPSDEQLKSGTASVVCLLNNFYPREAKVQWKVDNALQSGNSQESVTEQDSKDSTYSLSSTLTLSKADYEKHKVYACEVTHQGLSSPVTKSFNRGEC	–	5 % of control	0.54
heterodimerized antibody GpH7-A5/GpH7-B3 variant A327_18N/GpL16-k0 (antibody, human IgG1, kappa, He Ab: anti-glypican-3 IgG1, alteration in one H chain only; also called He Ab) heavy 1: not shown heavy 2: not shown light: DIVMTQSPLSLPVTPGEPASISCQASESLVHSNRNTYLHWYLQKPGQSPQLLIYKVSNRFSGVPDRFSGSGSGTDFTLKISRVEAEDVGVYYCSQNTHVPPTFGQGTKVEIERTVAAPSVFIFPPSDEQLKSGTASVVCLLNNFYPREAKVQWKVDNALQSGNSQESVTEQDSKDSTYSLSSTLTLSKADYEKHKVYACEVTHQGLSSPVTKSFNRGEC	113 % of control	88.9 % of control	0.79
heterodimerized antibody GpH7-A5/GpH7-B3 variant A327_09D/GpL16-k0 (antibody, human IgG1, kappa, He Ab: anti-glypican-3 IgG1, alteration in one H chain only; also called He Ab) heavy 1: not shown heavy 2: not shown light: DIVMTQSPLSLPVTPGEPASISCQASESLVHSNRNTYLHWYLQKPGQSPQLLIYKVSNRFSGVPDRFSGSGSGTDFTLKISRVEAEDVGVYYCSQNTHVPPTFGQGTKVEIERTVAAPSVFIFPPSDEQLKSGTASVVCLLNNFYPREAKVQWKVDNALQSGNSQESVTEQDSKDSTYSLSSTLTLSKADYEKHKVYACEVTHQGLSSPVTKSFNRGEC	172 % of control	124 % of control	0.72
heterodimerized antibody GpH7-A5/GpH7-B3 variant H268_10E/GpL16-k0 (antibody, human IgG1, kappa, He Ab: anti-glypican-3 IgG1, alteration in one H chain only; also called He Ab) heavy 1: not shown heavy 2: not shown light: DIVMTQSPLSLPVTPGEPASISCQASESLVHSNRNTYLHWYLQKPGQSPQLLIYKVSNRFSGVPDRFSGSGSGTDFTLKISRVEAEDVGVYYCSQNTHVPPTFGQGTKVEIERTVAAPSVFIFPPSDEQLKSGTASVVCLLNNFYPREAKVQWKVDNALQSGNSQESVTEQDSKDSTYSLSSTLTLSKADYEKHKVYACEVTHQGLSSPVTKSFNRGEC	230 % of control	148 % of control	0.64
heterodimerized antibody GpH7-A5/GpH7-B3 variant A327_12R/GpL16-k0 (antibody, human IgG1, kappa, He Ab: anti-glypican-3 IgG1, alteration in one H chain only; also called He Ab) heavy 1: not shown heavy 2: not shown light: DIVMTQSPLSLPVTPGEPASISCQASESLVHSNRNTYLHWYLQKPGQSPQLLIYKVSNRFSGVPDRFSGSGSGTDFTLKISRVEAEDVGVYYCSQNTHVPPTFGQGTKVEIERTVAAPSVFIFPPSDEQLKSGTASVVCLLNNFYPREAKVQWKVDNALQSGNSQESVTEQDSKDSTYSLSSTLTLSKADYEKHKVYACEVTHQGLSSPVTKSFNRGEC	–	6 % of control	0.67

— patent publication US20180155451A1 (published 2018)
